The values that follow come from PMC10914604, “FacZ is a GpsB-interacting protein that prevents aberrant division-site placement in Staphylococcus aureus” (Nature Microbiology, 2024).

For this experiment, the target named is T1, N-terminal domain of GpsB (GpsB 1-75) (S. aureus, UniProt Q2FYI5 1-75).
T1 construct: GpsB, S. aureus, amino acids 1-75 (N-terminal domain); source: E. coli BL21 (DE3), purified (Ni-NTA, SUMO protease, second Ni-NTA); not shown: His, N-terminal, cleaved; SUMO, N-terminal, cleaved
T1 sequence (looked up): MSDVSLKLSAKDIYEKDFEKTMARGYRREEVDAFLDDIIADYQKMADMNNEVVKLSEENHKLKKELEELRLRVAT
The experiment can be described thus: SEC; GpsB(1-75) at 90 uM mixed with SUMO-FacZ at 30 uM in 500 ul, salt 150-200 mM; Superdex75 Increase 10/300 in 20 mM HEPES pH 7.6, 100 mM NaCl, 1 mM DTT, 0.5 ml/min. The following applies: both partners purified.

B1: His-SUMO fusion bearing a 3x concatenation of residues 127-146 of FacZ (native motif NRHYRR) (domain or fragment)
chain: EIADKWQNRHYRRGSANYKAGSAGEIADKWQNRHYRRGSANYKAGSAGEIADKWQNRHYRRGSANYKA
notes: FacZ (factor preventing extra Z-rings), S. aureus, residues 127-146, first of three repeats; linker; FacZ, S. aureus, residues 127-146, second repeat; FacZ, S. aureus, residues 127-146, third repeat; The methods call the stretch 127-145, the results and legends 127-146; also called SUMO-3x-FacZ (127-146); His-SUMO-FacZ_(127-145); source: E. coli BL21 (DE3), purified (Ni-NTA); not shown: His, …
As to B1, the binding result is on record as “binds”.
